Assay results from US20200325187A1 (Genentech, published 2020).
Like-named read-outs stand apart in the source and are kept apart here. Non-standard residues stand in square brackets, D forms with d. No end group written: not given here. Nle = CCCC[C@H](N)C(=O)O

Tests used:
Flt-1 = Flt-1 (human, UniProt P17948 27-756, limits assumed); experiment: plate ELISA, growth factor coated
Experimental: (§1) Binding specificity of each peptide was established by competition ELISA. […] After blocking with block buffer (PBS with 0.5% BSA and 0.05% TWEEN®20) for 2 hours at room temperature, the receptor-Fc fusions or biotinylated receptors were serially diluted using assay buffer (PBS with 0.5% BSA and 0.05% TWEEN®20) and incubated for 1 hour at room temperature. […] Competition ELISA was conducted in an identical fashion as described above except after blocking, a mixture of serially diluted peptide containing a constant concentration of receptor-Fc fusion or biotinylated receptor (concentration of receptor was set to EC₆₀) was added and incubated for 1 hour. All recombinant human proteins and antibodies were purchased from R &D Systems (Minneapolis, Minn.).

hVEGF-A Y21A = target: T1, hVEGF-A Y21A (human, UniProt P15692-4 34-135, Y21A); experiment: SPR
T1 construct: position probably counted on the mature protein
T1 sequence (looked up): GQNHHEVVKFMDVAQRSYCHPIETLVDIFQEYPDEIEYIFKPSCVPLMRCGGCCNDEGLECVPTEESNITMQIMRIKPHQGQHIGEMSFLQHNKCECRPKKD
Experimental: (§2) Depending on the format of the assay either a streptavidin sensor (SA) or a dextran-coated (CM5) sensor was utilized as described below.
(§3) Reaction was then quenched by addition of 10 molar excess of Glycine pH 8.0 and the sample was buffer exchanged into PBS using an Amicon 0.5 mL 3000 MWCO ultra-centrifugal filters (EMD Millipore). The biotinylation state of the protein was verified by LC-MS analysis. Biotinylated VEGF-A was then captured on the surface until a resonance unit (RU) signal of about ˜400. For immobilization of VEGF-A on CM5 sensor, the surface was first activated with a mixture of N-ethyl-N′-(3-dimethylaminopropyl)carbodiimide hydrochloride and N-hydroxysuccinimide (EDC/NHS) according to the supplier instructions. VEGF-A was then diluted into coupling buffer (0.1 M Acetate Buffer, pH 5.0) and injected until the signal reached about ˜400 RU followed by a wash with 1 M ethanolamine pH 8.0 to quench remaining activated sites.

hVEGF-A Q89A = target: T2, hVEGF-A Q89A (human, UniProt P15692-4 34-135, Q89A); experiment: SPR
T2 construct: position probably counted on the mature protein
T2 sequence (looked up): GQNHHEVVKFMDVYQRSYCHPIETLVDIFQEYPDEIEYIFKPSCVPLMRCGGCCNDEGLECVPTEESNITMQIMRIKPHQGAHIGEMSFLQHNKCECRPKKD
Experimental: as §2, §3

hVEGF-A K48A = target: T3, hVEGF-A K48A (human, UniProt P15692-4 34-135, K48A); experiment: SPR
T3 construct: position probably counted on the mature protein
T3 sequence (looked up): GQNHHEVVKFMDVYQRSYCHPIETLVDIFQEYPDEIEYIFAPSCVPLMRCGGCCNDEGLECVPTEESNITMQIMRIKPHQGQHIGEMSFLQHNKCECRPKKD
Experimental: as §2, §3

hVEGF-A [1] = target: T4, hVEGF-A (human, UniProt P15692-4 27-191, limits assumed); experiment: SPR
T4 construct: also called human VEGF-A; WT
Experimental: as §2, §3

hVEGF-A (8-109) [2] = target: T5, hVEGF-A (8-109) (human, UniProt P15692 214-315); experiment: phage competition ELISA (clone on phage; the concentration varied on the axis is that of hVEGF (8-109))
T5 sequence (looked up): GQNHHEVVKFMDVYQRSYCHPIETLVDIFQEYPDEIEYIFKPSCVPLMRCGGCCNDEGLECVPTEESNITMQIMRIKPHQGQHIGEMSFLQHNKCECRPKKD

hVEGF-A (8-109) [3] = target: T5, hVEGF-A (8-109); experiment: spot phage ELISA
Outline: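 Phage clones from four selection rounds were grown overnight at 37 °C with M13-KO7 helper phage. Bound phage was detected with anti-M13-HRP and TMB, with binding to BSA alone run in parallel as background.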

hVEGF-A [4] = target: T4, hVEGF-A; experiment: cell-based or functional assay
hVEGF-A [5] = target: T4, hVEGF-A; experiment: phage competition ELISA, soluble CKP
hVEGF-A [6] = target: T4, hVEGF-A; experiment: cell-based or functional assay; remark: listed apart in the source
rat VEGF-A = target: T6, rat VEGF-A (rat, UniProt P16612-2 27-190, limits assumed); experiment: SPR
T6 construct: also called rVEGF
T6 sequence (looked up): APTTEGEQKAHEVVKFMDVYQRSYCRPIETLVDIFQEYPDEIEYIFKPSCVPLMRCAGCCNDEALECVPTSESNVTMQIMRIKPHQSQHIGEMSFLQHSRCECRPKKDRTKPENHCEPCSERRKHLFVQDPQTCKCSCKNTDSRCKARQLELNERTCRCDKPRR
Experimental: as §2, §3

mouse VEGF-A 164 = target: T7, mouse VEGF-A 164 (mouse, UniProt Q00731-2 27-190); experiment: SPR
T7 construct: also called mouse 164
T7 sequence (looked up): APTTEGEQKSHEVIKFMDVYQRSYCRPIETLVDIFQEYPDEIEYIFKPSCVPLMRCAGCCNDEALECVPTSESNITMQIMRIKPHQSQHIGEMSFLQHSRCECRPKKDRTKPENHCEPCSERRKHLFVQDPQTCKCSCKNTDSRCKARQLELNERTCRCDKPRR
Experimental: as §2, §3

human VEGF-A 165 = human VEGF-A 165 (human, UniProt P15692-4 27-191); experiment: SPR
Experimental: as §2, §3

rabbit VEGF-A = target: T8, rabbit VEGF-A (rabbit, UniProt G1T1L9 1-398); experiment: SPR
T8 sequence: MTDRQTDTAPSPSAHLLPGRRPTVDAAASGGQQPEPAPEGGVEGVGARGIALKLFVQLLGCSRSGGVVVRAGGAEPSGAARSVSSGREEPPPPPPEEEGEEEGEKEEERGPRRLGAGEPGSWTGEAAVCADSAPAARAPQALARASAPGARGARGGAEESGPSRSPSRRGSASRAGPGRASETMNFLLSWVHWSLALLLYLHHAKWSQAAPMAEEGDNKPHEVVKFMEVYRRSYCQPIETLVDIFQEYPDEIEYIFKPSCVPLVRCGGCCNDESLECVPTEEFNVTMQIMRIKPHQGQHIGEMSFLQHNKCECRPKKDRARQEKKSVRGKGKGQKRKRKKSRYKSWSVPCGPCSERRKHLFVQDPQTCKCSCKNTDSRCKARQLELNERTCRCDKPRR
Experimental: as §2, §3

hVEGF-A (8-109) [7] = target: T5, hVEGF-A (8-109); experiment: SPR
Experimental: as §2, §3

hVEGF-A [8] = target: T4, hVEGF-A; experiment: SPR; remark: listed apart in the source
Experimental: as §2, §3

hVEGF-A [9] = target: T4, hVEGF-A; experiment: KDR-VEGF competition ELISA
Flt-4 = target: T9, Flt-4 (human, UniProt P35916 25-776, limits assumed); experiment: plate ELISA, growth factor coated
T9 sequence (looked up): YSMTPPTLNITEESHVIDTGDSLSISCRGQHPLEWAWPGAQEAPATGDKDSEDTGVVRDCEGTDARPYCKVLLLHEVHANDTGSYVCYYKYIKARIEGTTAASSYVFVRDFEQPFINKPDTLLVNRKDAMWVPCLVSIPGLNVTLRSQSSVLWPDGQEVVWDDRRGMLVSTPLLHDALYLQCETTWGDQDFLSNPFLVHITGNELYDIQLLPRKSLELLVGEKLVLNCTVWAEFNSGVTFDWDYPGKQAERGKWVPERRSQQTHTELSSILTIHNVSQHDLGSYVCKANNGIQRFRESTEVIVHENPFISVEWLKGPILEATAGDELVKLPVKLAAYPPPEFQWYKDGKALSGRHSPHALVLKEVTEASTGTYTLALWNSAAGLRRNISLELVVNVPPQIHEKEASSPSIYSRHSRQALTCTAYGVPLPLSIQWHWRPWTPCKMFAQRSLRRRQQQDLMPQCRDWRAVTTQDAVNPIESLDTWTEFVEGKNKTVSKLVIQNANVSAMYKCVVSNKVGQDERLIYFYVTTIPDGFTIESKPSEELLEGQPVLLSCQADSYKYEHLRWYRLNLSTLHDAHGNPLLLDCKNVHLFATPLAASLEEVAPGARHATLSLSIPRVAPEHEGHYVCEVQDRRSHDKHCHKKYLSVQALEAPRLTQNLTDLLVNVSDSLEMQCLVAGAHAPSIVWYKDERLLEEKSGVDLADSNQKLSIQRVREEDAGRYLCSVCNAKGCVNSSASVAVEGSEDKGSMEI
Experimental: as §1

hVEGF-A (human), P15692 = target: T10, hVEGF-A (human), P15692; experiment: cell-based or functional assay
T10 chain: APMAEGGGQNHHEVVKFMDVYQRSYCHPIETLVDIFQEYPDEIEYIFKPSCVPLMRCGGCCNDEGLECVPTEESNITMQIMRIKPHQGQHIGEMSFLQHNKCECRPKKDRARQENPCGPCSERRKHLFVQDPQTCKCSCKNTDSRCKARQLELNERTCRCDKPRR

Chain of Flt-1 (P17948 27-756 limits assumed): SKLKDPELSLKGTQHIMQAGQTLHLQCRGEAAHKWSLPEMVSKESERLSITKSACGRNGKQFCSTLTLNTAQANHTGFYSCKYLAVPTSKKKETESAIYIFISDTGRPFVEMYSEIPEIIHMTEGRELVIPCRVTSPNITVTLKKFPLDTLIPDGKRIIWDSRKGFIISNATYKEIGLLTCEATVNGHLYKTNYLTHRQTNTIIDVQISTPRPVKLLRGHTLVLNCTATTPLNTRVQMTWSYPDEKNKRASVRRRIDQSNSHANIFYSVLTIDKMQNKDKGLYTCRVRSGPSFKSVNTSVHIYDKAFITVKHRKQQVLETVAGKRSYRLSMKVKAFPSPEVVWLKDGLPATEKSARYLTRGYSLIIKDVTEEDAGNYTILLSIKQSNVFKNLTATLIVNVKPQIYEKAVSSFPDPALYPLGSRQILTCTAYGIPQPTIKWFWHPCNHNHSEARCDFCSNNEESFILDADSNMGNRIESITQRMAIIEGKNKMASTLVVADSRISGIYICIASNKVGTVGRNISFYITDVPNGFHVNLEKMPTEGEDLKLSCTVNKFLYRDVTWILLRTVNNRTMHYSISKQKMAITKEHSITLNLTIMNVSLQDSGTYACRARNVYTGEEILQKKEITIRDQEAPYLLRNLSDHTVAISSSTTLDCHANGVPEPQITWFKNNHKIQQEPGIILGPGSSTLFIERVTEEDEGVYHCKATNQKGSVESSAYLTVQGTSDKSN

B1: PIGF-2 (ligand, human, UniProt P49763-3 19-170, looked up)
chain: LPAVPPQQWALSAGNGSSEVEVVPFQEVWGRSYCRALERLVDVVSEYPSEVEHMFSPSCVSLLRCTGCCGDENLHCVPVETANVTMQLLKIRSGDRPSYVELTFSQHVRCECRPLREKMKPERRRPKGRGKRRREKQRPTDCHLCGDAVPRR
notes: also called P1Gf-2; P1GF
B1: binds (Flt-1).

Work on GCNIMLPFWGCKQDSDCLAGCVCQYYQSCG (designed binder, also called EM54) [VEGF_CKP9.54] yielded a Kd (hVEGF-A Y21A) of 317 nM, a Kd (hVEGF-A Q89A) of 1880 nM and a Kd (hVEGF-A K48A) of 22 nM. The Kd (hVEGF-A [1]) was 55 nM, the “IC50 (read off the curve)” value (hVEGF-A (8-109) [2]) was roughly 4 nM and the ELISA (hVEGF-A (8-109) [3]) was 2.1. For the same binder, the “S/N vs BSA” value (hVEGF-A (8-109) [3]) was 28.4, the “Cellular IC50” value (hVEGF-A [4]) was 188 nM and the IC50 (hVEGF-A [5]) was 450 nM. For the same binder, the “Cellular IC50” value (hVEGF-A [6]) was 188 nM, the Kd (rat VEGF-A) was 176 nM and the Kd (mouse VEGF-A 164) was 250 nM. The Kd (human VEGF-A 165) was 190 nM, the Kd (rabbit VEGF-A) was 133 nM and the Kd (hVEGF-A (8-109) [7]) was 176 nM. It also gave a kon (hVEGF-A (8-109) [7]) of 1.26e+06 M⁻¹ s⁻¹, a Kd (hVEGF-A [8]) of 44 nM and an IC50 (hVEGF-A [9]) of 5.8 nM.

B2: VEGF-D (ligand, human, UniProt O43915 93-201, looked up)
chain: FYDIETLKVIDEEWQRTQCSPRETCVEVASELGKSTNTFFKPPCVNVFRCGGCCNEESLICMNTSTSYISKQLFEISVPLTSVPELVPVKVANHTGCKCLPTAPRHPYS
B2: binds (Flt-4).

B3: VEGF-C (ligand, human, UniProt P49767 103-227, looked up)
chain: TEETIKFAAAHYNTEILKSIDNEWRKTQCMPREVCIDVGKEFGVATNTFFKPPCVSVYRCGGCCNSEGLQCMNTSTSYLSKTLFEITVPLSQGPKPVTISFANHTSCRCMSKLDVYRQVHSIIRR
B3: binds (Flt-4).

In the case of GCNI[Nle]LPFWGCGRDFECLAGCVCQYYQSCG (designed binder, cysteine pairing not given here) [9.54.90.M5.Nle], the Cellular IC50 (hVEGF-A (human), P15692) is reported as 1.95 nM.
